According to patent US20110294167:

Tests used:
[1] = tested on: T1, ORF904 primase (residues 1-370) (Sulfolobus islandicus); settings: primer synthesis inferred from primer-free amplification with Phi29, 1500 ng primase vs Phi29 only; 10 mM MgCl2, 1 mM ATP, 30 C
T1 sequence: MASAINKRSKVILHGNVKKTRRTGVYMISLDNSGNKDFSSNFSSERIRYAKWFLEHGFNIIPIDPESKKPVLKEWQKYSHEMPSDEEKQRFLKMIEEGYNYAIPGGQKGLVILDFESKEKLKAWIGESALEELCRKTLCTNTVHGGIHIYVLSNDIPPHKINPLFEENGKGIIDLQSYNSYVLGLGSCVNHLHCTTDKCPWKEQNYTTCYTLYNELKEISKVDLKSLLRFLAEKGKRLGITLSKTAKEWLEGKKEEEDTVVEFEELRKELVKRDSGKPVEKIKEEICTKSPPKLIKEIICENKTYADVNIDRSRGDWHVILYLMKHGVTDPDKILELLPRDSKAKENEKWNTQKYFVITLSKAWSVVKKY

[2] = molecular target: T7 gp4 K318A primase (Bacteriophage T7) (UniProt P03692); settings: amplification with Phi29 and T7 DNA polymerase; 10 mM MgCl2, NTPs, 30 C

M13 ssDNA (M13mp18)
activity [1]: 13 fold
activity [2]: 4000 fold
